125 sequences from the supplement of paper PMC9112550, “Optimization of the antimicrobial peptide Bac7 by deep mutational scanning” (BMC Biology, 2022) can be followed below.
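Further: peptides expressed intracellularly from a pBAD plasmid library in pooled LB shake-flask culture, induced with 0.3% L-arabinose, DNA abundance read by NGS, three biological replicates, DESeq2 with apeglm shrinkage.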

The data set concerns Escherichia coli TOP10. Put plainly: shrunken log2 fold change of peptide-encoding DNA abundance (4.5 h post-induction vs induction); higher = less antimicrobial activity (less host growth inhibition). As to conditions: time post-induction: 4.5 h; library: site-saturation at positions 5, 18, 19, 20.
For RRIRTRPPRLPRPRPRPHFKPRP, the “shrunken log2 fold change” value is -0.307. As to RRIRLRPPRLPRPRPRPDYSPRP, the “shrunken log2 fold change” value was 0.14. For the sequence RRIRHRPPRLPRPRPRPFESPRP, the “shrunken log2 fold change” value is -0.00822. Consider RRIRDRPPRLPRPRPRPQNWPRP, for which the “shrunken log2 fold change” value was -0.00585.

On to RRIRRRPPRLPRPRPRPPFAPRP, for which the “shrunken log2 fold change” value was found to be 0.739. Under RRIRVRPPRLPRPRPRPWWNPRP stands -0.0063. Consider RRIRVRPPRLPRPRPRPCERPRP, for which the “shrunken log2 fold change” value is -0.00992.

For RRIRKRPPRLPRPRPRPNIEPRP, the “shrunken log2 fold change” value came out at 0.115. Take RRIRDRPPRLPRPRPRPQVWPRP: the “shrunken log2 fold change” value was determined as 0.0447. RRIRCRPPRLPRPRPRPAQLPRP: the “shrunken log2 fold change” value is -0.169.

In the case of RRIRERPPRLPRPRPRPGMPPRP, the “shrunken log2 fold change” value is -0.0315. In the case of RRIRYRPPRLPRPRPRPDDWPRP, the “shrunken log2 fold change” value is -0.437. On to RRIRGRPPRLPRPRPRPEKGPRP, for which the “shrunken log2 fold change” value stood at 0.136. Under RRIRNRPPRLPRPRPRPNQAPRP stands -0.0207; under RRIRWRPPRLPRPRPRPVSVPRP, -0.258; under RRIRMRPPRLPRPRPRPEKEPRP, -0.0085. For the sequence RRIRHRPPRLPRPRPRPKYLPRP, the “shrunken log2 fold change” value is -0.0216. For the sequence RRIRPRPPRLPRPRPRPVVTPRP, the “shrunken log2 fold change” value was -0.207. Under RRIRVRPPRLPRPRPRPVNYPRP stands 0.0937. For the sequence RRIRPRPPRLPRPRPRPWTCPRP, the “shrunken log2 fold change” value is -0.0575. On to RRIRGRPPRLPRPRPRPKMAPRP, for which the “shrunken log2 fold change” value was determined as 0.0451. For RRIRLRPPRLPRPRPRPMNSPRP, the “shrunken log2 fold change” value is -0.406. In the case of RRIRQRPPRLPRPRPRPRYVPRP, the “shrunken log2 fold change” value is -0.215. Under RRIRPRPPRLPRPRPRPRETPRP stands 0.574. Regarding RRIRNRPPRLPRPRPRPHEIPRP, the “shrunken log2 fold change” value is -0.102. With RRIRWRPPRLPRPRPRPYKMPRP, the “shrunken log2 fold change” value came to 0.0642. Regarding RRIRHRPPRLPRPRPRPHLVPRP, the “shrunken log2 fold change” value is -0.18. To RRIRMRPPRLPRPRPRPGHSPRP belongs 0.182. Turning to RRIRLRPPRLPRPRPRPCAFPRP, the “shrunken log2 fold change” value was -0.295. Turning to RRIRQRPPRLPRPRPRPYQHPRP, the “shrunken log2 fold change” value was -0.515.

Turning to RRIRKRPPRLPRPRPRPSASPRP, the “shrunken log2 fold change” value was determined as 0.288. Regarding RRIRSRPPRLPRPRPRPYNRPRP, the “shrunken log2 fold change” value was -0.267. Under RRIRIRPPRLPRPRPRPQKTPRP stands -0.168; under RRIRARPPRLPRPRPRPSFKPRP, -0.109. For RRIRYRPPRLPRPRPRPCYVPRP, the “shrunken log2 fold change” value is -0.0553.

For RRIRIRPPRLPRPRPRPKTVPRP, the “shrunken log2 fold change” value worked out at 0.0407. For the sequence RRIRRRPPRLPRPRPRPTVYPRP, the “shrunken log2 fold change” value was -0.135. As for RRIRRRPPRLPRPRPRPQDFPRP, the “shrunken log2 fold change” value is -0.078. Turning to RRIRQRPPRLPRPRPRPESAPRP, the “shrunken log2 fold change” value amounted to 0.208.

On to RRIRQRPPRLPRPRPRPKWFPRP, for which the “shrunken log2 fold change” value was -0.107.

Take RRIRDRPPRLPRPRPRPWMFPRP: the “shrunken log2 fold change” value is -0.0535.

With RRIRLRPPRLPRPRPRPSLEPRP, the “shrunken log2 fold change” value was -0.209. To RRIRHRPPRLPRPRPRPWIRPRP belongs -0.0813; to RRIRHRPPRLPRPRPRPGQSPRP, -0.0176; to RRIRKRPPRLPRPRPRPYYSPRP, -0.373.

Take RRIRRRPPRLPRPRPRPEKPPRP: the “shrunken log2 fold change” value turned out to be 0.376. Consider RRIRCRPPRLPRPRPRPFISPRP, for which the “shrunken log2 fold change” value is -0.689. As for RRIRNRPPRLPRPRPRPSHDPRP, the “shrunken log2 fold change” value was -0.516. For the sequence RRIRSRPPRLPRPRPRPRCPPRP, the “shrunken log2 fold change” value turned out to be 0.177. Consider RRIRHRPPRLPRPRPRPLNWPRP, for which the “shrunken log2 fold change” value stood at 0.0279. To RRIRWRPPRLPRPRPRPGQAPRP belongs 1.06; to RRIRWRPPRLPRPRPRPPADPRP, 0.846; to RRIRNRPPRLPRPRPRPWMVPRP, 0.131. Take RRIRIRPPRLPRPRPRPQFQPRP: the “shrunken log2 fold change” value is -0.166. RRIRLRPPRLPRPRPRPLFHPRP: the “shrunken log2 fold change” value was -0.233. Consider RRIRMRPPRLPRPRPRPCCKPRP, for which the “shrunken log2 fold change” value was -0.233. As for RRIRIRPPRLPRPRPRPLSRPRP, the “shrunken log2 fold change” value was -0.243. With RRIRERPPRLPRPRPRPAHMPRP, the “shrunken log2 fold change” value was -0.291. With RRIRKRPPRLPRPRPRPLGWPRP, the “shrunken log2 fold change” value was determined as 1.11. Consider RRIRKRPPRLPRPRPRPDTEPRP, for which the “shrunken log2 fold change” value stood at 1.13. For the sequence RRIRGRPPRLPRPRPRPPASPRP, the “shrunken log2 fold change” value turned out to be 1.07.

On to RRIRCRPPRLPRPRPRPKYQPRP, for which the “shrunken log2 fold change” value is -0.0383. Turning to RRIRQRPPRLPRPRPRPLVWPRP, the “shrunken log2 fold change” value came to 0.152. Turning to RRIRSRPPRLPRPRPRPWAEPRP, the “shrunken log2 fold change” value amounted to 0.0168. For RRIRIRPPRLPRPRPRPINHPRP, the “shrunken log2 fold change” value is -0.683. To RRIRHRPPRLPRPRPRPQSFPRP belongs 0.0133; to RRIRGRPPRLPRPRPRPSPSPRP, 0.649.

With RRIRHRPPRLPRPRPRPQGWPRP, the “shrunken log2 fold change” value came to 0.0705.

In the case of RRIRYRPPRLPRPRPRPWGPPRP, the “shrunken log2 fold change” value is -0.206. To RRIRKRPPRLPRPRPRPCFFPRP belongs 0.113; to RRIRWRPPRLPRPRPRPCMSPRP, -0.00264. To RRIRCRPPRLPRPRPRPMCPPRP belongs -0.312. To RRIRKRPPRLPRPRPRPHLLPRP belongs 0.00821; to RRIRRRPPRLPRPRPRPALWPRP, 1.02; to RRIRDRPPRLPRPRPRPQYPPRP, -0.219.

Take RRIRERPPRLPRPRPRPHWLPRP: the “shrunken log2 fold change” value was -0.128. To RRIRGRPPRLPRPRPRPYKIPRP belongs -0.618. Regarding RRIRPRPPRLPRPRPRPADTPRP, the “shrunken log2 fold change” value was 0.221. Take RRIRVRPPRLPRPRPRPMMCPRP: the “shrunken log2 fold change” value is -0.00174. Under RRIRVRPPRLPRPRPRPFQGPRP stands -0.0641. On to RRIRDRPPRLPRPRPRPAHKPRP, for which the “shrunken log2 fold change” value is -0.0546. Under RRIRIRPPRLPRPRPRPFRLPRP stands -0.223; under RRIRHRPPRLPRPRPRPVREPRP, 0.522; under RRIRKRPPRLPRPRPRPPGVPRP, 0.548. On to RRIRKRPPRLPRPRPRPLALPRP, for which the “shrunken log2 fold change” value came out at 0.536. For the sequence RRIRYRPPRLPRPRPRPTFVPRP, the “shrunken log2 fold change” value was -0.0102. Take RRIRHRPPRLPRPRPRPFEQPRP: the “shrunken log2 fold change” value was -0.283. Regarding RRIRYRPPRLPRPRPRPIYGPRP, the “shrunken log2 fold change” value is -0.428. To RRIRVRPPRLPRPRPRPSKCPRP belongs -0.0461; to RRIRFRPPRLPRPRPRPQYVPRP, -0.368; to RRIRARPPRLPRPRPRPDERPRP, 0.423. RRIRIRPPRLPRPRPRPYAWPRP: the “shrunken log2 fold change” value is -0.402. As for RRIRFRPPRLPRPRPRPWHYPRP, the “shrunken log2 fold change” value is -0.146. For RRIRQRPPRLPRPRPRPSAQPRP, the “shrunken log2 fold change” value is -0.223. Under RRIRYRPPRLPRPRPRPPMDPRP stands -0.582. Take RRIRCRPPRLPRPRPRPACWPRP: the “shrunken log2 fold change” value was 0.219. Under RRIRDRPPRLPRPRPRPHNQPRP stands -0.398; under RRIRFRPPRLPRPRPRPFDMPRP, -0.294. For the sequence RRIRVRPPRLPRPRPRPRMGPRP, the “shrunken log2 fold change” value came to 1.86.

On to RRIRCRPPRLPRPRPRPYRWPRP, for which the “shrunken log2 fold change” value was -0.141. To RRIRVRPPRLPRPRPRPTWDPRP belongs 0.178. To RRIRQRPPRLPRPRPRPMRGPRP belongs 0.904; to RRIRVRPPRLPRPRPRPIGSPRP, -0.0343.

With RRIRTRPPRLPRPRPRPMDNPRP, the “shrunken log2 fold change” value is -0.458. Regarding RRIRKRPPRLPRPRPRPFTHPRP, the “shrunken log2 fold change” value came to 0.0159. Regarding RRIRKRPPRLPRPRPRPREAPRP, the “shrunken log2 fold change” value was determined as 1.44. To RRIRMRPPRLPRPRPRPGMNPRP belongs -0.00589; to RRIRQRPPRLPRPRPRPLHCPRP, -0.183. In the case of RRIRKRPPRLPRPRPRPDWMPRP, the “shrunken log2 fold change” value is 0.00417. In the case of RRIRLRPPRLPRPRPRPNYHPRP, the “shrunken log2 fold change” value was -0.536. To RRIRKRPPRLPRPRPRPMFSPRP belongs -0.0859; to RRIRPRPPRLPRPRPRPRFLPRP, 0.146; to RRIRMRPPRLPRPRPRPSRDPRP, 0.257. Take RRIRQRPPRLPRPRPRPKFSPRP: the “shrunken log2 fold change” value was -0.914. Turning to RRIRGRPPRLPRPRPRPKISPRP, the “shrunken log2 fold change” value came out at 0.477.

Regarding RRIRCRPPRLPRPRPRPEWKPRP, the “shrunken log2 fold change” value turned out to be 0.0169. In the case of RRIRRRPPRLPRPRPRPAVAPRP, the “shrunken log2 fold change” value came to 0.66. For the sequence RRIRSRPPRLPRPRPRPIVYPRP, the “shrunken log2 fold change” value was -0.255. Regarding RRIRTRPPRLPRPRPRPVVRPRP, the “shrunken log2 fold change” value was -0.00389. Turning to RRIRDRPPRLPRPRPRPVQPPRP, the “shrunken log2 fold change” value amounted to 0.196. With RRIRSRPPRLPRPRPRPQQFPRP, the “shrunken log2 fold change” value was -0.123.

With RRIRKRPPRLPRPRPRPAMIPRP, the “shrunken log2 fold change” value stood at 0.909. Consider RRIRDRPPRLPRPRPRPKPTPRP, for which the “shrunken log2 fold change” value is 0.0678. To RRIRRRPPRLPRPRPRPARHPRP belongs 0.447; to RRIRSRPPRLPRPRPRPSGGPRP, -0.0437.
